Results: patent EP1147413B1

Biological target: mouse GDF-8 pro-domain without tag, lacking the signal peptide, released from WT-GDF-8-F in QM-7 cells (mouse) (UniProt O08689)
Experiment: cell-based or functional assay

Sequence of UniProt O08689 (O08689 20-267 limits assumed): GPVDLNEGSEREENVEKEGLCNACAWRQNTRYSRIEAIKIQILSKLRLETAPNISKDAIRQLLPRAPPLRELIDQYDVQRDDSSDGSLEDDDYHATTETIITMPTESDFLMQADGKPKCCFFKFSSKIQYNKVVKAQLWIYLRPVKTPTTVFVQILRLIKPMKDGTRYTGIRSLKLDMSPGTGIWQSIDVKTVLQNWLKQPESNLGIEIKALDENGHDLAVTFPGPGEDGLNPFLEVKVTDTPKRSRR

luciferase activity of affinity-purified GDF-8 complexes after 1U/ml m-calpain for 2 hours at 37° C, against the untreated control: 2.5 fold
Substance: m-calpain (enzyme)
